Results taken from patent publication KR20140116416A.

Molecular target: H5 hemagglutinin expressed on transfected cells (pJK2b-HA5) (influenza A virus, subtype H5; strain not stated)
Experiment: cell-based or functional assay

B1: 항체 4D9 (antibody 4D9), purified (antibody, V domains shown)
VH: QVTLRESGPGLVKPSETLSLTCTISGASINTDYWSWIRQPPGKGLEWIGYIYYRGRTNYNPSLRSRVTISVDTSKNQFSLQMTSMTAADTAVYYCARDVTGISRENAFDIWGQGTLVTVSS
VL: AIRMTQSPSSLSASVGDRVTITCRASQSISGYLNWYQQKPGKAPKLLIYAASSLQSGVPSRFSGSGSGTDFTLTISSLQPEDFATYYCQQSYSIPTTFGQGTRLEIK
For B1, which cell fusion inhibition is on record?
Its cell fusion inhibition is 50 to 60%.
